Measurements: paper PMC8651795, “eIF2B-capturing viral protein NSs suppresses the integrated stress response” (Nature Communications, 2021)

Target: T1, human eIF2B (heterodecamer of two copies each of the α-, β-, γ-, δ- and ε-subunits) (human, UniProt Q14232;P49770;Q9NR50;Q9UI10;Q13144)
T1 construct: also called eIF2B decamer; copies: 2 + 2 + 2 + 2 + 2
Assay: MST
Settings: both partners purified

B1: Sandfly fever Sicilian virus (SFSV) nonstructural protein NSs, wild type (natural protein)
chain: MNSQYMFDYPAINIDVRCHRLLSSVSYVAYNKFHTHDVSTYEHCEIPLEKLRLGFGRRNSLADFYSLGELPASWGPACYFSSVKPMMYTFQGMASDLSRFDLTSFSRKGLPNVLKALSWPLGIPDCEIFSICSDRFVRGLQTRDQLMSYILRMGDSHSLDECIVQAHKKILQEARRLGLSDEHYNGYDLFREIGSLVCLRLINAEPFDTASSGEALDVRTVIRSYRASDPSTGLTEYGNSLWTPIHSHVDENDESSSDSDF
notes: also called SFSV NSs; wild-type SFSV NSs; source: E. coli T7 Express, purified (His-tag resin, HiTrap Q, Superdex 200); not shown: His-tag, C-terminal, kept
Binder B1 has a Kd of 16.9 ± 2.8 nM.
